In publication PMC12758336:

Experiments:
NRBF2_3A = NRBF2_3A (UniProt Q8VCQ3); assay: co-IP; competitive co-IP: FLAG-tagged bait and GFP-tagged competitor transiently over-expressed in HEK293T; anti-FLAG M2 magnetic beads; immunoblot for endogenous PIK3R4/VPS15 and PIK3C3/VPS34; Figure 6C also after 100 nM rapamycin (2 h) or EBSS medium (2 h)
NRBF2_5A = NRBF2_5A (UniProt Q8VCQ3); assay: as above

- endogenous PIK3R4/VPS15 pulled down, against wild type (% less than wild type) (NRBF2_3A): 50
- endogenous PIK3R4/VPS15 pulled down, against wild type (% less than wild type) (NRBF2_5A): 50
Substance: endogenous PIK3R4/VPS15 (from UniProt Q99570 1-1358) (natural protein)
